How the values were obtained:
[1] = biological target: ModTad2 (Tad2 homolog encoded by a prophage of Myroides odoratus) (prophage of Myroides odoratus); assay: crystal structure
crystal structure = biological target: the molecule itself; assay: crystal structure

Molecule | stoichiometry N [1] | stoichiometry N (crystal structure)
ModTad2 (Tad2 homolog encoded by a prophage of Myroides odoratus) (natural protein) | 4 | –
Macro domain of ThsA(amylo) (residues 83-297), type II Thoeris of Bacillus amyloliquefaciens Y2 (domain or fragment, UniProt I2C645 83-297, looked up) NNITLNLNGSEVEIKKGDIFEVPRNNYKVIAFNEYFDTQVDDVIIARETLNGQYIKRYYSHQDITELDQKIKDDVKLKIEEKNVERPFGGKTTRYSLGSVFKDMDFFLVAFSKFDRENRAQLKLNEYASCMLNVWNEINTLHASKEVFIPLLGSGITRHVDSDVGVNELLHIMLWTFQISKVKFREPAKVTILLYKNDHKKINFYKLKEFEKNGL | – | 2

Source: paper doi:10.1101/2024.01.03.573942 (bioRxiv, 2024)
